Literature values, collected in US20080279765A1, “Novel Imaging Agents for Fibrosis” (priority 2005, published 2008).
pKd: −log10 of the molar value. Where two headings read alike, the source gives them in different places.

Key:
M6P receptor [1] = molecular target: T1, M6P receptor (Homo sapiens, UniProt P11717); details: pH 7.4; read-out: Kd of binding to the M6P receptor
M6P receptor [2] = molecular target: T1, M6P receptor; details: site on M6P receptor distinct from the IGF-II binding site

T1 sequence (P11717 41-2491): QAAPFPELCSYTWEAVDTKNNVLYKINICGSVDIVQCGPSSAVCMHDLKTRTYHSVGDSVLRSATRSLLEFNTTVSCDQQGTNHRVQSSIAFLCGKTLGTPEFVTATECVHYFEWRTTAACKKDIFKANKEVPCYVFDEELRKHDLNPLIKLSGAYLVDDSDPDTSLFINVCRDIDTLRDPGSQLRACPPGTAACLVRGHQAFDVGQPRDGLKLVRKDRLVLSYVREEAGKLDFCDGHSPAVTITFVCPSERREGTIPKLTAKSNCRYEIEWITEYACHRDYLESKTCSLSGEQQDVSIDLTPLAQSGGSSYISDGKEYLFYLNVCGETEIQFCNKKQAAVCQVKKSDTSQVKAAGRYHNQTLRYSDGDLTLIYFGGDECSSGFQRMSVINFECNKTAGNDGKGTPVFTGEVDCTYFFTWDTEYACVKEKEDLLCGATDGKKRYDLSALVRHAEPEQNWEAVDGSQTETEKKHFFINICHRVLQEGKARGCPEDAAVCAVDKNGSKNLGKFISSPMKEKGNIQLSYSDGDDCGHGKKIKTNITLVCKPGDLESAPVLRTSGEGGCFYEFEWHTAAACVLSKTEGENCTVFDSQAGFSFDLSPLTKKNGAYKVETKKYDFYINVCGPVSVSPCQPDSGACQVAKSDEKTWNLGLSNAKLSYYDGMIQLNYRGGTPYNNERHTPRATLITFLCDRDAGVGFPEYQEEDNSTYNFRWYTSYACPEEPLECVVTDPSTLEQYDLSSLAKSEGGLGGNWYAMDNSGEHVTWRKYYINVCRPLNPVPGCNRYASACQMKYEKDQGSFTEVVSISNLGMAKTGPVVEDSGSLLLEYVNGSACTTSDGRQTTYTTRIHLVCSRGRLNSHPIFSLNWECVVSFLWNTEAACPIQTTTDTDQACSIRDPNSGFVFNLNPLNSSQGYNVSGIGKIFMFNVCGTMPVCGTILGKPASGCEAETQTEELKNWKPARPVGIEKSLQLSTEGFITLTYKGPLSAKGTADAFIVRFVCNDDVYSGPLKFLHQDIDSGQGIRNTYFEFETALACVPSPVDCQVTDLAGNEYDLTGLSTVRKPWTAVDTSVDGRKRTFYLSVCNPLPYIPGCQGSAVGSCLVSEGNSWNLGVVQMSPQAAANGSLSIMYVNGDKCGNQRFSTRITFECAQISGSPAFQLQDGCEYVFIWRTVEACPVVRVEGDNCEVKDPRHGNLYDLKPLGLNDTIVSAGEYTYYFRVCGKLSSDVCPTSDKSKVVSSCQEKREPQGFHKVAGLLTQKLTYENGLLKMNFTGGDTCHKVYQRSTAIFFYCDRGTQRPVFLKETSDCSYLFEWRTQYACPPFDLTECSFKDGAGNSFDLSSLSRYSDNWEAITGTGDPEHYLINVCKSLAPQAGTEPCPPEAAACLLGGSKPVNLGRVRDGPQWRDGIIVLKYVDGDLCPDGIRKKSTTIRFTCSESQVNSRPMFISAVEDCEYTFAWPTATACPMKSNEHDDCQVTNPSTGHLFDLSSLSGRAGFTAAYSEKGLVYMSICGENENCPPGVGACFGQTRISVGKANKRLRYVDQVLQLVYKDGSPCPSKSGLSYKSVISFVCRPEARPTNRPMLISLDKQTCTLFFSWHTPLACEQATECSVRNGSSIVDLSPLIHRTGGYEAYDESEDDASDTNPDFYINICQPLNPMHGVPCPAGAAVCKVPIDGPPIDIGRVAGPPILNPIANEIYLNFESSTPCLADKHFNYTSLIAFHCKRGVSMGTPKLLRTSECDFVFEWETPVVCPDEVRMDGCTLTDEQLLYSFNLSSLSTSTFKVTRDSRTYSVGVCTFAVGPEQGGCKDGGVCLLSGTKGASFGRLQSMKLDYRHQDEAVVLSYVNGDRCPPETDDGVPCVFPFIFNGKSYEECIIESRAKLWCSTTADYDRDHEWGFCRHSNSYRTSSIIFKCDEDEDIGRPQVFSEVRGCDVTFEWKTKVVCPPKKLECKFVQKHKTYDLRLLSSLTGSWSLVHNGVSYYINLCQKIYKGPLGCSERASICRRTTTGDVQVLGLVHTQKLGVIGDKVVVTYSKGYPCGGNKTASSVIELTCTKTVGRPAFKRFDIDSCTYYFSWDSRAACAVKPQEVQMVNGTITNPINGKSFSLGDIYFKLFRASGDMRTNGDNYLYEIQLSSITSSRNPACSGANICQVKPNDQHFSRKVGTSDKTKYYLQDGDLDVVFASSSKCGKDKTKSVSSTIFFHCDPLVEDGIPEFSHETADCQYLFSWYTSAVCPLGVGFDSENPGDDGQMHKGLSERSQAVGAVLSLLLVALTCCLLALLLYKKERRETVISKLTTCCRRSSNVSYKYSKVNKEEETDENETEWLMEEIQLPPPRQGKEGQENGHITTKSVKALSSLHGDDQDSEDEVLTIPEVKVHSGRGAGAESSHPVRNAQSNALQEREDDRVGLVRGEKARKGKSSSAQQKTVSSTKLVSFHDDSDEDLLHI

Substance | pKd (M6P receptor [1]) | pKd (M6P receptor [2])
IGF-II: non-glycosylated single chain of 67 amino acid residues, SEQ ID NO. 1 | 7.85 to 9.52 | –
retinoic acid | – | 8.62
